Source: patent publication US20190194358A1 (ARIZONA BOARD OF REGENTS A BODY CORPORATE OF THE STATE OF …, published 2019)
Where two headings read alike, the source gives them in different places.

Tests used:
[1] = target: T1, transferrin (human, UniProt P02787 20-698); experiment: peptide microarray without organic prewash, Alexa 555 transferrin with Alexa 647 E. coli lysate; rank by the score of Example 2
T1 construct: also called TRF; pooled human transferrin (Sigma)

[2] = target: T1, transferrin; experiment: affinity characterisation of Example 29 (SPR; format for the purified peptides not stated)
[3] = target: T1, transferrin; experiment: peptide microarray with organic prewash, Alexa 555 transferrin with Alexa 647 E. coli lysate; rank by the score of Example 2
[4] = target: T1, transferrin; experiment: SPR (Biacore T100), transferrin immobilised, steady-state response
Source text: Flow rates and contact times are adjusted as necessary to provide the surface concentration of target desired for the intended application, and may vary by target. In general, for evaluating whether binding occurs, it is preferable to immobilize a relatively large quantity of target, and higher flow rates and/or longer contact times may be used. For determining kinetics, it is preferable to limit the amount of target immobilized so as to minimize rebinding and avidity effects, and lower flow rates and/or contact times may be used.
Because the off rates for these polypeptides were very high, KD values were estimated by measuring steady-state response for at least five concentrations in a two-fold dilution series, each concentration tested in duplicate. For each experiment, response data were processed using a reference surface to correct for bulk refractive index changes and any non-specific binding. Data were also double referenced using responses from blank running buffer injections. […] Analytes were injected for 60 s at a flow rate of 30 μl/min. The antigen surfaces were regenerated with 30 s consecutive pulses of NaOH/NaCl (50 mM NaOH in 1M NaCl) and Glycine (10 mM glycine-HCl, pH 2.5).

[5] = target: T1, transferrin; experiment: SPR (Biacore T100), transferrin immobilised (9758 RU), steady state affinity fit
Source text: Affinity plots were generated for each peptide and fit using a steady state affinity model.

[6] = target: T2, Gal80 (UniProt P04387 1-435, limits assumed); experiment: light-directed peptide array, 25 µM labelled GAL80 with 1 mg/mL E. coli lysate; relative to template BP2;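 further: array read-out by fluorescence scanning, library of 10,000 peptides varied at four positions with ten residue choices, each feature present in triplicate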
T2 construct: Cy3/Cy5 labelled on arrays, immobilised for SPR and ELISA
T2 sequence (looked up): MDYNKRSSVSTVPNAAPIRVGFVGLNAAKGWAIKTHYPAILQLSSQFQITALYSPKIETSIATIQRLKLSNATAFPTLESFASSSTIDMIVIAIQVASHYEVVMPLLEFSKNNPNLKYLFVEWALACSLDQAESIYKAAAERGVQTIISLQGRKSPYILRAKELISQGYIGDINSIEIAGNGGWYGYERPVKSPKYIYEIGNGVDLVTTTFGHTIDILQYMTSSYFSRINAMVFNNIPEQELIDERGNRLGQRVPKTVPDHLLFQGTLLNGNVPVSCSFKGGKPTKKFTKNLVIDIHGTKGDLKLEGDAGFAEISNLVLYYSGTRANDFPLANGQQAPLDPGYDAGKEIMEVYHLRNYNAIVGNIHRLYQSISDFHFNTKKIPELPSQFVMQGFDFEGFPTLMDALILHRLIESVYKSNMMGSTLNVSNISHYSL
Source text: The chemically diverse set of 10 amino acids {I,D,W,L,E,G,T,S,K,R} were selected as the amino acids to substitute into the four variable positions for a total of 10,000 unique variant peptides. Three replicates were included in the array to produce a total of 30,000 array features. […] The resulting array was imaged using a commercial fluorescence scanner.

[7] = target: T2, Gal80; experiment: SPR, gal80 immobilised on the chip; Kd from on and off rates
[8] = target: T3, Tumor Necrosis Factor-alpha (UniProt P01375 77-233); experiment: SPR (Biacore A100), TNF-α captured, equilibrium response over a concentration series
T3 construct: Immobilised on pipette tips or SPR chips (amine coupling or biotin capture); also called TNF-α; TNF-alpha
Procedure: (§1) Point-mutant libraries were prepared in 96-well stock plates From the stock plate, peptides were diluted to 50 μM concentration in Biacore HBS-EP buffer (GE Healthcare, Piscataway, N.J.) containing 1 mg/ml carboxymethyl-dextran (Sigma-Aldrich, St. Louis, Mo.) to reduce non-specific binding to the CM-5 SPR chip surface. TNF-αt was captured on a CM-5 chip surface at different capture levels on spots 1, 2, 4, and 5 across all four flow cells corresponding to a 40-200 RU range of predicted Rₘₐₓ binding responses. Spot 3 contained only immobilized neutravidin and served as a reference spot.
(§2) Purified point-mutant affinities were measured on the Biacore A100 using SPR equilibrium binding response across a series of peptide concentrations on an SPR chip with TNF-α captured as described above.

[9] = target: T3, Tumor Necrosis Factor-alpha; experiment: SPR; reference TNF1 lead peptide
Procedure: as §1, §2

[10] = target: T3, Tumor Necrosis Factor-alpha; experiment: SPR; difference to the TNF1 lead peptide
Procedure: as §1, §2

[11] = target: T3, Tumor Necrosis Factor-alpha; experiment: SPR; reference TNF1 lead peptide; remark: listed apart in the source
Procedure: as §1, §2

[12] = target: T3, Tumor Necrosis Factor-alpha; experiment: SPR (Biacore A100), TNF-α captured, equilibrium response over a concentration series; remark: listed apart in the source
Procedure: as §1, §2

[13] = target: T3, Tumor Necrosis Factor-alpha; experiment: SPR (Biacore A100) point-mutant screen at 50 µM peptide
Procedure: as §1
Using the prepared 96-well plates and Biacore A100 SPR instrument, four peptides were flowed separately, in parallel, through the four flow cells over all 4 TNF-α spots and the neutravidin reference spot, with a 60 second association phase and 300 second dissociation phase. SPR sensorgrams were recorded for each peptide response with all 4 TNF-α spots and the neutravidin reference spot across the four flow cells on the SPR chip. Surface regeneration was performed after every 12 injections in each flow cell with Biacore Glycine 2.5 regeneration solution (GE Healthcare, Piscataway, N.J.). Point-mutant reference subtracted, peptide molecular weight adjusted, responses at the late binding region of the sensorgram (a few seconds before dissociation) were compared to the response of the TNF1 lead

T1 sequence (P02787 20-698 limits assumed): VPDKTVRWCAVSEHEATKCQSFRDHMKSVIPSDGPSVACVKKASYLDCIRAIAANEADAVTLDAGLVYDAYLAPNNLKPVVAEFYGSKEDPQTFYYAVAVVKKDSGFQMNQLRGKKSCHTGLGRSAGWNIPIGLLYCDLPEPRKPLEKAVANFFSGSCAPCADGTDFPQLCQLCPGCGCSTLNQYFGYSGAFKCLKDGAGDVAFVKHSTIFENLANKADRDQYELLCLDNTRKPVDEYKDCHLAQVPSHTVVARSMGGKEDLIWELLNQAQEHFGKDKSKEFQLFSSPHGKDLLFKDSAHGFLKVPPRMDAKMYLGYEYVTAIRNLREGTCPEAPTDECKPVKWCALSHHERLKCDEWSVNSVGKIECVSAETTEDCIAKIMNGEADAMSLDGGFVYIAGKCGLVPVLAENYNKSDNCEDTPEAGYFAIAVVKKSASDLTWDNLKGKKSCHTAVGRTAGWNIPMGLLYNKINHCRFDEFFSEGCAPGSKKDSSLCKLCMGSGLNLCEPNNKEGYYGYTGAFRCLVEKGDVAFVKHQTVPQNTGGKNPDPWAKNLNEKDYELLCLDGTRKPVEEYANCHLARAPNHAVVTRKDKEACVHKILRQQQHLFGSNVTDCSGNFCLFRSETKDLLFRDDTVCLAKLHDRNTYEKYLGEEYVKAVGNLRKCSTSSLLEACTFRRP
T3 sequence (P01375 77-233 limits assumed): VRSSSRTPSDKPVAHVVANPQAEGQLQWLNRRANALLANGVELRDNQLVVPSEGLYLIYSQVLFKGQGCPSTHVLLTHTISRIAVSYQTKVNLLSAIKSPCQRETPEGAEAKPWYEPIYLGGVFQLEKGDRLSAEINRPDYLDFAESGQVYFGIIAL

B1: TRF26 (peptide)
peptide: AHKVVPQRQIRHAYNRYGSC
notes: 20-mer ending GSC; also called TRF26 Lead Peptide
Rank - non-prewash [1]: 596 rank
Binding ΔG [2]: -5.56 kcal/mol
Kd [2]: 85 µM
Rank -- prewash [3]: 436 rank
Kd [4]: ~100 µM

B2: TBPL005 (peptide)
peptide: GHKVVPQRQIRHAYNRYGSC
notes: Clone from mRNA display on a doped TRF26 library; synthesised and HPLC purified
Kd [5]: 150 µM

B3: TBPL025 (peptide)
peptide: GHKVVPQRQMRHAYNRNGSC
notes: Clone from mRNA display on a doped TRF26 library
Kd [5]: 150 µM

B4: BP2 variant EGEITEGKGSKKGSC (peptide)
peptide: EGEITEGKGSKKGSC
notes: Synthesised in situ on a light-directed array
Fold Enhancement [6]: 9.87 fold

EGEITEGKLSKKGSC [BP2 variant EGEITEGKLSKKGSC]
Fold Enhancement [6]: 9.72 fold

FRGWAHIFFGPHVIYRGGSC (20-mer ending GSC) [TRF23]
Rank - non-prewash [1]: 2720 rank
Rank -- prewash [3]: 2090 rank
Kd [4]: ~50 µM

LDPLFNTSIMVNWHRWMGSC [TRF27]
Rank - non-prewash [1]: 1290 rank
Rank -- prewash [3]: 3320 rank

QYHHFMNLKRQGRAQAYGSC (20-mer ending GSC) [TRF21]
Rank - non-prewash [1]: 84 rank
Rank -- prewash [3]: 5 rank
Kd [4]: ~60 µM

APYAPQQIHYWSTLGFKGSC (20-mer ending GSC) [TRF25]
Rank - non-prewash [1]: 736 rank
Rank -- prewash [3]: 603 rank
Kd [4]: ~60 µM

HAYKGPGDMRRFNHSGMGSC (20-mer ending GSC) [TRF22]
Rank - non-prewash [1]: 711 rank
Rank -- prewash [3]: 61 rank

B5: BP2 variant EGEITEGKKSKLGSC (peptide)
peptide: EGEITEGKKSKLGSC
notes: as for B4
Fold Enhancement [6]: 11.1 fold

B6: BP2 variant EGEKTEGKKSKLGSC (peptide)
peptide: EGEKTEGKKSKLGSC
notes: as for B4
Fold Enhancement [6]: 9.81 fold

B7: BP2 variant EGEKTEGKKSKEGSC (peptide)
peptide: EGEKTEGKKSKEGSC
notes: as for B4
Fold Enhancement [6]: 9.7 fold

B8: BP2 variant EGEITEGKKSKGGSC (peptide)
peptide: EGEITEGKKSKGGSC
notes: as for B4
Fold Enhancement [6]: 10.8 fold

B9: BP2 variant EGEITEGKKSKRGSC (peptide)
peptide: EGEITEGKKSKRGSC
notes: as for B4
Fold Enhancement [6]: 10.5 fold

B10: BP2 variant EGEDTEGKKSKEGSC (peptide)
peptide: EGEDTEGKKSKEGSC
notes: as for B4
Fold Enhancement [6]: 10.1 fold

B11: BP2 variant EGEWTEGKKSKEGSC (peptide)
peptide: EGEWTEGKKSKEGSC
notes: as for B4
Fold Enhancement [6]: 10.7 fold

B12: BP2 variant EGEDTEGKKSKRGSC (peptide)
peptide: EGEDTEGKKSKRGSC
notes: as for B4
Fold Enhancement [6]: 10.4 fold

B13: BP2 variant EGEWTEGKKSKIGSC (peptide)
peptide: EGEWTEGKKSKIGSC
notes: as for B4
Fold Enhancement [6]: 10.4 fold

B14: BP2 variant EGEDTEGKKSKGGSC (peptide)
peptide: EGEDTEGKKSKGGSC
notes: as for B4
Fold Enhancement [6]: 10.8 fold

B15: BP2 variant EGEDTEGKKSKTGSC (peptide)
peptide: EGEDTEGKKSKTGSC
notes: as for B4
Fold Enhancement [6]: 10.2 fold

B16: BP2 variant EGEWTEGKKSKRGSC (peptide)
peptide: EGEWTEGKKSKRGSC
notes: as for B4
Fold Enhancement [6]: 11 fold

B17: BP2 variant EGEWTEGKKSKTGSC (peptide)
peptide: EGEWTEGKKSKTGSC
notes: as for B4
Fold Enhancement [6]: 10.5 fold

B18: BP2 variant EGEITEGKKSKTGSC (peptide)
peptide: EGEITEGKKSKTGSC
notes: as for B4
Fold Enhancement [6]: 10.6 fold

B19: BP2 variant EGEKTEGKKSKTGSC (peptide)
peptide: EGEKTEGKKSKTGSC
notes: as for B4
Fold Enhancement [6]: 8.5 fold

B20: BP2 variant EGEITEGKKSKIGSC (peptide)
peptide: EGEITEGKKSKIGSC
notes: as for B4
Fold Enhancement [6]: 11.3 fold

B21: BP2 variant EGEKTEGKKSKGGSC (peptide)
peptide: EGEKTEGKKSKGGSC
notes: as for B4
Fold Enhancement [6]: 9.24 fold

B22: BP2 variant EGEDTEGKKSKLGSC (peptide)
peptide: EGEDTEGKKSKLGSC
notes: as for B4
Fold Enhancement [6]: 10.4 fold

B23: BP2 variant EGEITEGKKSKEGSC (peptide)
peptide: EGEITEGKKSKEGSC
notes: as for B4
Fold Enhancement [6]: 10.9 fold

B24: BP2 variant EGEDTEGKKSKIGSC (peptide)
peptide: EGEDTEGKKSKIGSC
notes: as for B4
Fold Enhancement [6]: 10.4 fold

B25: BP2 variant EGEWTEGKKSKGGSC (peptide)
peptide: EGEWTEGKKSKGGSC
notes: as for B4
Fold Enhancement [6]: 11.1 fold

B26: BP2 variant EGEWTEGKKSKLGSC (peptide)
peptide: EGEWTEGKKSKLGSC
notes: as for B4
Fold Enhancement [6]: 10.7 fold

B27: BP2 variant EGEITEGKKSKSGSC (peptide)
peptide: EGEITEGKKSKSGSC
notes: as for B4
Fold Enhancement [6]: 9.91 fold

SVKPWRPLITGNRWLNSGSC (20-mer ending GSC) [TRF24]
Rank - non-prewash [1]: 71 rank
Rank -- prewash [3]: 958 rank
Kd [4]: ~50 µM

B28: BP1 on dsDNA (peptide)
affinity element BP1: GTEKGTSGWLKTGSC
modifications: C-terminal Cys joined through SMCC to the DNA linker
notes: also called BP1 alone conjugated to the double-stranded DNA linker
Kd [7]: 482 nM

FERSYLKMPWSFLQSRQGSC [TNF1 D4S+P5Y+M7K triple mutant]
Kd [8]: 14 µM
Observed Binding ΔG [8]: -6.63 kcal/mol
Kd Fold-Change Relative to Lead [9]: 11 fold

FERDYLMMPWKFLQSRQGSC [TNF1 P5Y+S11K double mutant]
Kd [8]: 24 µM
Observed Binding ΔG [8]: -6.63 kcal/mol
Kd Fold-Change Relative to Lead [9]: 6.6 fold

FERDPLKMPWSFLQSRQGSC [TNF1 M7K point-mutant]
Component Binding ΔG Contribution [10]: -0.72 kcal/mol
Kd Fold-Change Relative to Lead [11]: 2.8 fold
Binding ΔG [12]: -5.93 kcal/mol
Kd [12]: 57 µM
fold enhancement in SPR binding response relative to TNF1 [13]: ≥ 15 fold

FERYPLKMPWSFLQSRQGSC [TNF1 D4Y+M7K double mutant]
Kd [8]: 17 µM
Observed Binding ΔG [8]: -6.54 kcal/mol
Kd Fold-Change Relative to Lead [9]: 9.4 fold

FERDYLKMPWSFLQSRQGSC [TNF1 P5Y+M7K double mutant]
Kd [8]: 27 µM
Observed Binding ΔG [8]: -6.24 kcal/mol
Kd Fold-Change Relative to Lead [9]: 5.8 fold

FERDPLMMPWKFLQSRQGSC [TNF1 S11K point-mutant]
Component Binding ΔG Contribution [10]: -0.82 kcal/mol
Kd Fold-Change Relative to Lead [11]: 3.9 fold
Binding ΔG [12]: -6.03 kcal/mol
Kd [12]: 40 µM
fold enhancement in SPR binding response relative to TNF1 [13]: ≥ 15 fold

FERDYLMMPWSFLQSRQGSC [TNF1 P5Y point-mutant]
Component Binding ΔG Contribution [10]: -0.58 kcal/mol
Kd Fold-Change Relative to Lead [11]: 2.7 fold
Binding ΔG [12]: -5.79 kcal/mol
Kd [12]: 58 µM
fold enhancement in SPR binding response relative to TNF1 [13]: ≥ 15 fold

FERYPLMMPWSFLQSRQGSC [TNF1 D4Y point-mutant]
Component Binding ΔG Contribution [10]: -0.74 kcal/mol
Kd Fold-Change Relative to Lead [11]: 3.6 fold
Binding ΔG [12]: -5.95 kcal/mol
Kd [12]: 44 µM
fold enhancement in SPR binding response relative to TNF1 [13]: ≥ 15 fold

B29: TRF19 (peptide)
peptide: KEDNPGYSSEQDYNKLDGSC
notes: 20-mer ending GSC; on arrays attached by the C-terminal Cys
Rank - non-prewash [1]: 5010 rank
Rank -- prewash [3]: 9600 rank
Kd [4]: ~150 µM

RFQLTQHYAQFWGHYTWGSC (20-mer ending GSC) [TRF28]
Rank - non-prewash [1]: 601 rank
Rank -- prewash [3]: 712 rank

GQTQFAMHRFQQWYKIKGSC (20-mer ending GSC) [TRF20]
Rank - non-prewash [1]: 18 rank
Rank -- prewash [3]: 289 rank
